Results reported in the Immune Epitope Database (IEDB).

Experiments:
[1] = target: HLA-B*18:01; test: IEDB peptide-MHC binding, purified MHC/competitive/fluorescence; filed as Kd, often an IC50 or EC50 that approximates it; ≥ and ≤ were set here for values at or beyond the usual limits of such assays; settings: source organism: Human immunodeficiency virus 1
[2] = target: HLA-A*26:01; test: as above; settings: source organism: Human immunodeficiency virus 1
[3] = target: HLA-A*68:02; test: as above; settings: source organism: Human immunodeficiency virus 1
[4] = target: HLA-A*02:06; test: as above; settings: source organism: Human immunodeficiency virus 1
[5] = target: HLA-B*08:02; test: as above; settings: source organism: Human immunodeficiency virus 1
[6] = target: HLA-A*02:01; test: as above; settings: source organism: Human immunodeficiency virus 1
[7] = target: HLA-A*02:03; test: as above; settings: source organism: Human immunodeficiency virus 1
[8] = target: HLA-B*39:01; test: as above; settings: source organism: Human immunodeficiency virus 1
[9] = target: HLA-A*02:50; test: as above
[10] = target: HLA-A*69:01; test: IEDB peptide-MHC binding, purified MHC/direct/fluorescence; filed as Kd, often an IC50 or EC50 that approximates it; ≥ and ≤ were set here for values at or beyond the usual limits of such assays
[11] = target: HLA-B*08:01; test: as above; settings: source organism: Salmonella enterica subsp. enterica serovar Typhimurium str. LT2
[12] = target: HLA-A*11:01; test: as above; settings: source organism: Salmonella enterica
[13] = target: HLA-B*15:01; test: as above; settings: source organism: Salmonella enterica
[14] = target: HLA-C*14:02; test: as above; settings: source organism: Salmonella enterica subsp. enterica serovar Typhi str. CT18
[15] = target: HLA-A*01:01; test: as above; settings: source organism: Salmonella enterica
[16] = target: HLA-B*44:02; test: as above; settings: source organism: Salmonella enterica
[17] = target: HLA-B*07:02; test: as above; settings: source organism: Salmonella enterica
[18] = target: HLA-B*58:01; test: as above; settings: source organism: Salmonella enterica
[19] = target: HLA-B*40:01; test: as above; settings: source organism: Salmonella enterica
[20] = target: HLA-B*27:05; test: as above; settings: source organism: Salmonella enterica
[21] = target: HLA-A*02:16; test: as above
[22] = target: HLA-A*02:01; test: as above
[23] = target: HLA-A*03:01; test: as above
[24] = target: HLA-B*08:01; test: IEDB peptide-MHC binding, purified MHC/competitive/fluorescence; filed as Kd, often an IC50 or EC50 that approximates it; ≥ and ≤ were set here for values at or beyond the usual limits of such assays; settings: source organism: Listeria monocytogenes J0161
[25] = target: HLA-A*11:01; test: as above; settings: source organism: Listeria monocytogenes J0161
[26] = target: HLA-A*01:01; test: as above; settings: source organism: Listeria monocytogenes J0161
[27] = target: HLA-B*44:02; test: as above; settings: source organism: Listeria monocytogenes J0161
[28] = target: HLA-B*07:02; test: as above; settings: source organism: Listeria monocytogenes J0161
[29] = target: HLA-A*24:03; test: as above; settings: source organism: Listeria monocytogenes J0161
[30] = target: HLA-A*30:01; test: as above; settings: source organism: Listeria monocytogenes J0161
[31] = target: HLA-A*66:01; test: as above; settings: source organism: Listeria monocytogenes J0161
[32] = target: HLA-B*58:01; test: as above; settings: source organism: Listeria monocytogenes J0161
[33] = target: HLA-B*40:01; test: as above; settings: source organism: Listeria monocytogenes J0161
[34] = target: HLA-B*53:01; test: as above; settings: source organism: Listeria monocytogenes J0161
[35] = target: HLA-B*27:05; test: as above; settings: source organism: Listeria monocytogenes J0161
[36] = target: HLA-B*14:02; test: as above; settings: source organism: Listeria monocytogenes J0161
[37] = target: HLA-B*51:01; test: IEDB peptide-MHC binding, purified MHC/direct/fluorescence; filed as Kd, often an IC50 or EC50 that approximates it; ≥ and ≤ were set here for values at or beyond the usual limits of such assays; settings: source organism: Listeria monocytogenes serotype 4b str. H7858
[38] = target: HLA-A*23:01; test: as above; settings: source organism: Listeria monocytogenes serotype 4b str. H7858
[39] = target: HLA-B*18:01; test: as above; settings: source organism: Listeria monocytogenes serotype 4b str. H7858
[40] = target: HLA-B*27:03; test: as above; settings: source organism: Listeria monocytogenes serotype 4b str. H7858
[41] = target: HLA-A*26:01; test: as above; settings: source organism: Listeria monocytogenes serotype 4b str. H7858
[42] = target: HLA-A*02:12; test: as above; settings: source organism: Listeria monocytogenes serotype 4b str. H7858
[43] = target: HLA-A*02:06; test: as above; settings: source organism: Listeria monocytogenes serotype 4b str. H7858
[44] = target: HLA-A*02:19; test: as above; settings: source organism: Listeria monocytogenes serotype 4b str. H7858
[45] = target: HLA-A*29:02; test: as above; settings: source organism: Listeria monocytogenes serotype 4b str. H7858
[46] = target: HLA-A*02:03; test: as above; settings: source organism: Listeria monocytogenes serotype 4b str. H7858
[47] = target: HLA-B*39:01; test: as above; settings: source organism: Listeria monocytogenes serotype 4b str. H7858
[48] = target: HLA-B*57:01; test: as above; settings: source organism: Listeria monocytogenes serotype 4b str. H7858
[49] = target: HLA-A*02:11; test: as above; settings: source organism: Vibrio vulnificus CMCP6
[50] = source organism: Salmonella enterica
[51] = source organism: Listeria monocytogenes serotype 4b str. H7858
[52] = source organism: Vibrio vulnificus

IEVKDTKEAL showed a Kd [1] of 0.314 µM, a Kd [2] of no less than 20 µM and a Kd [3] of 0.766 µM. For the same sequence, the Kd [4] was 0.575 µM, the Kd [5] was no less than 20 µM and the Kd [6] was 0.681 µM. It also gave a Kd [7] of no less than 20 µM and a Kd [8] of no less than 20 µM.
AMMWRIAQL gave a Kd ([9]; source organism: Salmonella enterica subsp. enterica serovar Typhi) of no more than 0.0001 µM, a Kd [10, 50] of 2 µM and a Kd [11] of 0.612 µM. It also gave a Kd [12] of no less than 20 µM, a Kd [13] of 0.171 µM and a Kd [14] of 0.118 µM. For the same sequence, the Kd [15] was no less than 20 µM, the Kd [16] was no less than 20 µM and the Kd [17] was no less than 20 µM. The Kd [18] was no less than 20 µM, the Kd [19] was 2.28 µM and the Kd [20] was 0.348 µM. It also gave a Kd ([21]; source organism: Salmonella enterica subsp. enterica serovar Typhimurium str. LT2) of no more than 0.001 µM, a Kd [22, 50] of 0.0262 µM and a Kd [23, 50] of no less than 20 µM.
AALEGLSGF showed a Kd [24] of no less than 5 µM, a Kd [25] of no less than 5 µM and a Kd [26] of no less than 5 µM. It also gave a Kd [27] of no less than 5 µM, a Kd [28] of no less than 5 µM and a Kd [29] of 0.771 µM. The Kd [30] was no less than 5 µM, the Kd [31] was no less than 5 µM and the Kd [32] was no less than 5 µM. For the same sequence, the Kd [33] was no less than 5 µM, the Kd [34] was no less than 5 µM and the Kd [35] was no less than 5 µM. For the same sequence, the Kd [36] was no less than 5 µM, the Kd [10, 51] was no less than 20 µM and the Kd [37] was no less than 20 µM. The Kd [38] was 0.622 µM, the Kd [39] was no less than 20 µM and the Kd [40] was no less than 20 µM. For the same sequence, the Kd [41] was no less than 20 µM, the Kd [42] was no less than 20 µM and the Kd [43] was 1.92 µM. The Kd [44] was no less than 20 µM, the Kd [45] was 0.542 µM and the Kd [22, 51] was 1.9 µM. It also gave a Kd [46] of no less than 20 µM, a Kd [47] of no less than 20 µM and a Kd [48] of no less than 20 µM. It also gave a Kd [23, 51] of no less than 20 µM.
QLAFTYCQV gave a Kd ([9]; source organism: Vibrio vulnificus YJ016) of no more than 0.0001 µM, a Kd [10, 52] of 0.153 µM and a Kd [49] of 0.002 µM. The Kd ([21]; source organism: Vibrio vulnificus CMCP6) was 0.021 µM and the Kd [22, 52] was 0.567 µM.
